Measurements: the supplement of paper PMC7125110
± gives the standard error. For some assays here: Fewer inactive variants are shown than the library holds.

B1: glmS ribozyme (parent)
chain: AUAAAAGCGCCAGAACUACAGAAAUGUAGUUGACGAGGAGGAGGUUUAUCGAAUUUUCGGCGGAUGCCUCCAAA

Experiments:
Settings in all cases: with glucosamine-6-phosphate
glucosamine-6-phosphate [1] = variants of: B1; assay: kcat; higher = faster cleavage; RNA array
Outline: (§1)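 Barcoded ribozyme variants were transcribed in situ on sequenced MiSeq chips by E. coli RNA polymerase. At 37 °C, a hybridised Cy3 probe tracked them while glucosamine-6-phosphate (40 μM to 10 mM) in HEPES/KCl/Mg(OAc)2 buffer flowed in and tiles were imaged over ~14 h. Per-tile medians of signals normalised to baseline and to non-cleaving reference variants were fit to one- or two-exponential decays, giving kobs. kcat and KM came from weighted Michaelis–Menten fits across concentrations.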

glucosamine-6-phosphate [2] = variants of: B1; assay: self-cleavage kobs at 160 uM GlcN6P; higher = faster cleavage; RNA array
Outline: as §1

glucosamine-6-phosphate [3] = variants of: B1; assay: self-cleavage kobs at 640 uM GlcN6P; higher = faster cleavage; RNA array
Outline: as §1

glucosamine-6-phosphate [4] = variants of: B1; assay: self-cleavage kobs at 2500 uM GlcN6P; higher = faster cleavage; RNA array
Outline: as §1

glucosamine-6-phosphate [5] = variants of: B1; assay: self-cleavage kobs at 10000 uM GlcN6P; higher = faster cleavage; RNA array
Outline: as §1

glucosamine-6-phosphate [6] = variants of: B1; assay: KM; higher = weaker cofactor use; RNA array
Outline: as §1

glucosamine-6-phosphate [7] = variants of: B1; assay: self-cleavage kobs at 40 uM GlcN6P; higher = faster cleavage; RNA array
Outline: as §1

Variant	kcat (glucosamine-6-phosphate [1]) [s⁻¹]	self-cleavage kobs at 160 uM GlcN6P (glucosamine-6-phosphate [2]) [s⁻¹]	self-cleavage kobs at 640 uM GlcN6P (glucosamine-6-phosphate [3]) [s⁻¹]	self-cleavage kobs at 2500 uM GlcN6P (glucosamine-6-phosphate [4]) [s⁻¹]	self-cleavage kobs at 10000 uM GlcN6P (glucosamine-6-phosphate [5]) [s⁻¹]	KM (glucosamine-6-phosphate [6]) [µM]	self-cleavage kobs at 40 uM GlcN6P (glucosamine-6-phosphate [7]) [s⁻¹]
A14C U65G C70U	0.0014 ± 0.00044	4.59e-05 ± 1.6e-05	0.000315 ± 6.8e-05	0.000467 ± 6.2e-05	0.00104 ± 0.00015		
G13U C16G	0.000981 ± 0.00012		0.000112 ± 1.7e-05	0.000305 ± 6e-05	0.000653 ± 0.0001	5170 ± 950	
G37A C71A	0.000462 ± 4.6e-05	5.16e-05 ± 2e-05	0.000114 ± 2.7e-05	0.000331 ± 4.6e-05	0.000391 ± 3.8e-05	1520 ± 410	
C58A C68U	0.000273 ± 5.2e-05	3.66e-05 ± 1e-05	6.75e-05 ± 7e-06	0.000129 ± 1.2e-05	0.000251 ± 2.3e-05	2100 ± 790	
U31G A48C	0.000112 ± 1.1e-05			5.79e-05 ± 1.5e-05	8.83e-05 ± 1.7e-05	2550 ± 670	
C50G U57A	7.3e-05 ± 1.7e-05	8.31e-05 ± 1.4e-05	5.84e-05 ± 1.6e-05	6.05e-05 ± 2.7e-05			3.58e-05 ± 1.6e-05
A14G U46G	0.0115 ± 0.0033	0.00247 ± 0.001	0.00524 ± 0.0017	0.0199 ± 0.0079	0.00927 ± 0.0027	997 ± 360	0.000421 ± 7.1e-05
A39G C70U C71U	0.000401 ± 9.5e-05	0.000403 ± 0.00018	0.000383 ± 8.4e-05	0.000283 ± 8.9e-05	0.000785 ± 0.00024		0.000107 ± 2.7e-05
C16G U55G	0.0033 ± 0.0015	0.000227 ± 5.1e-05	0.000789 ± 0.00012	0.00148 ± 0.00031	0.00368 ± 0.00057		0.000147 ± 2.3e-05
G40A A48U	0.000176 ± 1.7e-05		2.83e-05 ± 8.5e-06	9.03e-05 ± 1.2e-05	0.000133 ± 1.7e-05	2780 ± 590	
A42G U47G	0.00929 ± 0.0033	0.00105 ± 0.00032	0.0029 ± 0.00064	0.0046 ± 0.001	0.0143 ± 0.0028		0.000293 ± 6.2e-05
A48G G63A	< 1e-05	< 1e-05					< 1e-05
U30G U54A	0.0115 ± 0.0045	0.000384 ± 7.9e-05	0.00201 ± 0.0004	0.00795 ± 0.0017	0.00853 ± 0.0011		0.000247 ± 3.2e-05
U30C G60U	< 1e-05		< 1e-05		< 1e-05		< 1e-05
